{"source": "paper PMC5409194", "about": "(Journal of Visualized Experiments : JoVE, 2017)", "proteins": {"B1": {"name": "C-terminal fragment (residue 323-785) of vaccinia virus protein D5 (domain or fragment)", "chain": "GNKLFNIAQRILDTNSVLLTERGDYIVWINNSWKFNSEEPLITKLILSIRHQLPKEYSSELLCPRKRKTVEANIRDMLVDSVETDTYPDKLPFKNGVLDLVDGMFYSGDDAKKYTCTVSTGFKFDDTKFVEDSPEMEELMNIINDIQPLTDENKKNRELYEKTLSSCLCGATKGCLTFFFGETATGKSTTKRLLKSAIGDLFVETGQTILTDVLDKGPNPFIANMHLKRSVFCSELPDFACSGSKKIRSDNIKKLTEPCVIGRPCFSNKINNRNHATIIIDTNYKPVFDRIDNALMRRIAVVRFRTHFSQPSGREAAENNDAYDKVKLLDEGLDGKIQNNRYRFAFLYLLVKWYKKYHVPIMKLYPTPEEIPDFAFYLKIGTLLVSSSVKHIPLMTDLSKKGYILYDNVVTLPLTTFQQKISKYFNSRLFGHDIESFINRHKKFANVSDEYLQYIFIEDISSP"}}, "biological_target": "the molecule itself", "assay": "[…]"}
{"protein": "B1", "values": [{"measurement": "stoichiometry N", "result": 6}]}
